Results reported in US5591427A, “Human Interleukin-3(Il-3) variants and their use to promote or antagonize IL-3-mediated processes” (Medvet Science Pty. Ltd., priority 1979, dated 1997).
Numbering of substitutions follows the chain as printed.

Assays:
[1] = target: T1, IL-3 receptor (Homo sapiens, UniProt P26951+P32927); conditions: E. coli expressed variants, literature; cited from earlier work
T1 sequence (P26951 19-378): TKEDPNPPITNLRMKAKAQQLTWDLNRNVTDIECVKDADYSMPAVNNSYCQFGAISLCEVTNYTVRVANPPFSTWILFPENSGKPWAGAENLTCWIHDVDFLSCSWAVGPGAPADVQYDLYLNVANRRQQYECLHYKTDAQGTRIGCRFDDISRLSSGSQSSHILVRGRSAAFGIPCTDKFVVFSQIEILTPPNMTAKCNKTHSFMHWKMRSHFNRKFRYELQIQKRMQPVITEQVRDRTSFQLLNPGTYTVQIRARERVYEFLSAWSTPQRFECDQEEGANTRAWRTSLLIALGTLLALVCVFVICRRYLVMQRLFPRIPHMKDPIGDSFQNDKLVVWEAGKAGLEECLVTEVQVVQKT
T1 sequence (P32927 17-897): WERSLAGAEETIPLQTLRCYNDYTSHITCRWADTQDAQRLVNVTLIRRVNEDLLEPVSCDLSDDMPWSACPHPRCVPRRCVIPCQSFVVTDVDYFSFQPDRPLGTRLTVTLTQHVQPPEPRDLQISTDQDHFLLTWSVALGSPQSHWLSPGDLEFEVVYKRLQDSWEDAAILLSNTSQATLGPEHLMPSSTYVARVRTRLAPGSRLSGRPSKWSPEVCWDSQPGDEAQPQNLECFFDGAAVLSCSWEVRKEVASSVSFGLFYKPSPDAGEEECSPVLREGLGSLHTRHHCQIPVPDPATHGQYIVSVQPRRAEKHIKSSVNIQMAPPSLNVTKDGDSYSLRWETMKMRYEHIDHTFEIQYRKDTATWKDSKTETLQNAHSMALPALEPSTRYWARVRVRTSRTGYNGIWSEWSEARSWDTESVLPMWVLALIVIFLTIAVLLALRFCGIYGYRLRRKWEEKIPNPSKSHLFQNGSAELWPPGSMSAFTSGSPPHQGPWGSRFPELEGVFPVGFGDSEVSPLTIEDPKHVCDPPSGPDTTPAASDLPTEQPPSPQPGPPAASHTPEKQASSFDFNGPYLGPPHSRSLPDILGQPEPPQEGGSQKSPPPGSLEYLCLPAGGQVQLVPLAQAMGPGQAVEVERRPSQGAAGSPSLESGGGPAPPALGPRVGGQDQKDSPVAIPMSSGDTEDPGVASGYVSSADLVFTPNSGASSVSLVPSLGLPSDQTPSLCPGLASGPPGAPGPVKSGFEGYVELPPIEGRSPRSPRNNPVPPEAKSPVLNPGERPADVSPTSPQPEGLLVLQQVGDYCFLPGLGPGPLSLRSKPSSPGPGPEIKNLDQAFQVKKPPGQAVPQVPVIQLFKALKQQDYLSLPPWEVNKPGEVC

[2] = test system: M-07 cell line; conditions: E. coli expressed variants, literature; cited from earlier work
[3] = test system: chronic myeloid leukaemic (CML) cells; experiment: Proliferation of chronic myeloid leukaemic (CML) cells, [3H] thymidine incorporation; type: cell-based, human; conditions: for stimulation of CML cell proliferation: FIG. 2, FIG. 8; for Relative biological activity, PROLIFERATION CML: concentration of IL-3 mutant giving 50% of biological activity compared to that of wild type IL-3
Experimental: (b ) Proliferation of chronic myeloid leukaemic (CML) cells: Primarily CML cells from one patient were selected for their ability to incorporate [^3 H] thymidine in response to IL-3 as described (Lopez el. al., supra ). Briefly, CML cells were placed at 2×10^5 cells/mL fresh medium containing different concentrations of IL-3. Cells were incubated for 24 hours in a flat bottom 96-well NUNCLON plates (2×10^4 cells/well) before being pulsed with [^3 H] thymidine (0.5 μCi/well) for four more hours at 37° C. The cells were then harvested onto glass filters with a Titertek automated cell harvester and counted into a Beckman liquid scintillation counter. Data are expressed in cpm, and each point is the mean of six replicates.

[4] = test system: monocytes; experiment: Stimulation of human monocyte adherence (51Cr adhesion assay); type: cell-based; conditions: for stimulation of monocyte adherence: FIG. 3; for Relative biological activity, MONOCYTE: concentration of IL-3 mutant giving 50% of biological activity compared to that of wild type IL-3
Experimental: (a) Monocyte purification. Monocytes were purified from the peripheral blood of normal donors, obtained from the Adelaide Red Cross Transfusion Service, as previously described (Elliott et. al., 1990, J. Immunol., 145, 167-171). In brief, mononuclear cells were prepared by centrifugation of whole blood on lymphoprep cushions (Nyegaard, Oslo, Norway) and washed twice in HBSS, 0.02% EDTA, 0.1% heat inactivated FCS (Flow Laboratories, North Ryde, Australia) and monocytes were purified in a Beckman J-6M/E elutriator using the Sanderson chamber, a flow rate of 12 ml/min and a constant rotor speed of 2050 rpm. Cells remaining in the chamber after 30 min were collected, washed twice in HBSS, and used immediately. Using these methods, monocyte purity as assessed by morphology and nonspecific-esterase staining was always >90% and usually >95%. The major contaminating cell types were lymphocytes and granulocytes (principally basophils).
(b) Adhesion assay. Adhesion was measured by an isotopic method essentially as described (Elliott et. al., supra). In brief, purified monocytes (0.5 to 1×10^8) were resuspended in 1 ml RPMI 1640 with 0.1% FCS and antibiotics and incubated for 30 min at 37° C. with 500 μCi^51 Cr in the form of sodium chromate (Amersham International., Buckinghamshire, England). Cells were washed thrice in RPMI 1640 and resuspended in culture medium consisting of RPMI 1640, 10% FCS, antibiotics, and 0.2% sodium bicarbonate. For measurement of adhesion, 1 to 2.5×10^5 monocytes were aliquotted per well in 96-well microtitre plates (Nunc, Karnstrup, Denmark) together with stimuli or control medium to a total volume of […], and incubated for the indicated periods. […] At harvest, samples of supernatant were taken to assess spontaneous ^51 Cr release (usually <10% of cell-associated radioactivity), wells were washed three times with RPMI 1640 at 37° C., and residual adherent cells lysed in 10 mM Tris-hydrochloride, and 1% Nonident p40 detergent (Sigma). Lysates were transferred to tubes and counted in a Packard auto-gamma 5650. Percent adherence was calculated according to the formula: [formula]

[5] = target: T2, IL-3 high affinity receptor of monocytes (Homo sapiens, UniProt P26951+P32927); experiment: Competition for 125I-IL-3 binding to the high affinity receptor of monocytes; conditions: FIG. 5, at the concentrations tested
T2 construct: endogenous in cells; host or cells: freshly purified human peripheral blood monocytes
T2 sequence (P26951 19-378): T1 sequence (P26951 19-378)
T2 sequence (P32927 17-897): T1 sequence (P32927 17-897)
Experimental: (a) Radioiodination of hIL-3: rh IL-3 (gift from Dr. L. Park, Immunex Corporation, Seattle, Wash.) was radioiodinated by the ICI method as previously described (Contreras et. al., supra). Iodinated protein was separated from free ^125 I by chromatography on a Sephadex G-25 PD 10 column (Pharmacia, Uppsala, Sweden) equilibrated in phosphate-buffered saline (PBS) containing 0.02% Tween 20, and stored at 4° C. for up to 4 weeks. Before use, the iodinated protein was purified from Tween and nonprotein-associated radioactivity by cation exchange chromatography on a 0.3-ml CM-Sepharose CL-6B column (Pharmacia) and stored at 4° C. for up to 5 days.
(b) Competition Binding assay. Freshly purified monocytes were suspended in binding medium consisting of RPMI 1640 supplemented with 20 mmol/L/HEPES and 0.5% bovine serum albumin (BSA). […] Cell suspensions were then overlaid on 0.2 mL FCS at 4° C. and centrifuged for 30 seconds at a maximum speed in a Beckman Microfugre 12. The tip of each tube was cut off above the visible cell pellet and counted in a Packard Auto-Gamma 5650 (Downer's Grove, Ill). The results are expressed as Percent competition where 100% is the competition observed in the presence of 100 fold excess native IL-3.

[6] = test system: bone marrow progenitor cells; experiment: Colony assay: clonal proliferation and differentiation of bone marrow progenitor cells in semi-solid agar; type: cell-based; conditions: for Relative biological activity, PROLIFERATION COLONIES: concentration of IL-3 mutant giving 50% of biological activity compared to that of wild type IL-3, mean ± SD
Experimental: (a) Colony assay: this assay measured the clonal proliferation and differentiation of bone marrow progenitor cells in semi-solid agar and was carried out as described (Lopez et. al., 1985, Blood 72, 1797-1804). Briefly, low density, macrophage-depleted bone marrow cells were cultured at a concentration of 0.5 to 1×10^5 /mL in Iscove's modified Dulbecco's medium (IMDM, GIBCI, Grant Island, N.Y.), containing 0.33% agar (Difco, Detroit), 25% FCS (Commonwealth Serum Laboratories, Parkville, Victoria, Australia), and 20 μmol/LK2-mercaptoethanol. Different dilutions of IL-3- containing COS cell supernatants were added to each plate. Plates were prepared in triplicate and scored after incubation at 37° C. in 5% CO2 in a humid atmosphere for 14 days. Clones containing 40 cells were scored as colonies.

[7] = target: T3, IL-3R α chain and β chain (Homo sapiens, UniProt P26951+P32927); experiment: Competition for 125I-IL-3 binding to reconstituted IL-3 high affinity receptor (α and β chains) in COS cells; conditions: FIG. 7
T3 construct: amplify the complete coding region of the IL-3R alpha chain; also to amplify the coding region of the IL-3R α chain; expressed in transfected cells; host or cells: COS cells (pCDM8 vector, electroporation)
T3 sequence (P26951 19-378): T1 sequence (P26951 19-378)
T3 sequence (P32927 17-897): T1 sequence (P32927 17-897)
From the text: PolyA+ RNA was isolated from the human cord blood cell line KMT2. Oligo dT primed double stranded cDNA was synthesised and used as template for PCR amplification. The PCR primers were designed to amplify the complete coding region of the IL-3R alpha chain and also to amplify the coding region of the […]. The PCR products were cloned into the vector pGEM-2 for sequence verification, and then into the eukaryotic expression vector, pCDM8. The […]-containing plasmid was transfected into COS cells by electroporation, either on its own or in conjunction with the […], and after two days the cells were used for binding studies.

[8] = test system: basophils; experiment: Histamine release assay with basophils; type: cell-based, human; conditions: FIG. 4
Experimental: This was carried out as previously described (Lopez et. al., 1990, J. Cell. Physiol., 145, 69-77). Briefly, basophils were obtained from the peripheral blood of normal individuals after dextran sedimentation and centrifugation over Lymphoprep. The percentage of basophils in these preparations varied between 0.2% and 10%. In 300 μl 2×10^4 cells were incubated with 2 μg/ml of purified human IgE. IgE-sensitisedcells were mixed with a goat IgG antihuman IgE (Cappel 0101-0061) and rhIL-3, in a final volume of 500 μl. After incubation for 60 min at 37° C., the cells were centrifuged and 350 μl aliquots removed and stored at -20° C. before assaying for histamine content. Histamine was assayed using a radioertzymatic method essentially as described (Shaff and Beavan, 1979, Anal. Biochem., 94, 425-430). Briefly, samples of 30 μl were diluted with an equal volume of water and mixed with a 30 μl solution comprising 27.5 μl 0.1 M sodium phosphate, pH 7.9, 1.5 μl rat kidney histamine-N-methyltransferase, and 1.0 μl (0.5 μCi)^3 H-methyl-S-adensoyl-L-methionine (Dupont Net 155, low SA). Tritium-labelled methyl-histamine was extracted into chloroform/ether, dried, and counted by scintillation spectrophotometry. […] as nanograms of histamine per milliliter by extrapolation to a standard curve constructed with 10, 5 and 1 ng/ml of histamine (SIGMA).

B1: Gly 33: literature hIL-3 variant in which Pro 33 was substituted with Gly (Lokker et al, 1991a) (protein, UniProt P08700 20-152, looked up, variant P33G)
Interleukin-3: APMTQTTPLKTSWVNCSNMIDEIITHLKQPPLGLLDFNNLNGEDQDILMENNLRRPNLEAFNRAVKSLQNASAIESILKNLLPCLPLATAAPTRHPIHIKDGDWNEFRRKLTFYLKTLENAQAQQTTLSLAIF
receptor binding capacity [1]: without a significant modification | proliferation activity, M-07 cells [2]: enhanced proliferation activity

B2: M25: human IL-3 mutant with substitution of residues 21, 22 and 25 (protein, UniProt P08700 20-152, looked up, variant D21A E22L T25A)
Interleukin-3: B1 Interleukin-3 with D21A, E22L, T25A, G33P
stimulation of CML cell proliferation [3]: lack of stimulation | stimulation of monocyte adherence [4]: lack of stimulation | binding to high affinity IL-3 receptors of monocytes [5]: negative at binding

B3: M6: human IL-3 mutant, amino acid 101 (Asp) replaced by Ala (protein, UniProt P08700 20-152, looked up, variant D101A)
Interleukin-3: B1 Interleukin-3 with G33P, D101A
Relative biological activity, PROLIFERATION COLONIES [6]: 104 ± 35 | stimulation of CML cell proliferation [3]: more potent than the wild type IL-3 | Relative biological activity, PROLIFERATION CML [3]: 205 | stimulation of monocyte adherence [4]: more potent than the wild type IL-3 | Relative biological activity, MONOCYTE [4]: 153 ± 48

B4: M47: human IL-3 mutant, glutamic acid at position 22 replaced by arginine (protein, UniProt P08700 20-152, looked up, variant E22R)
Interleukin-3: B1 Interleukin-3 with E22R, G33P
binding to cotransfected α and β chains [7]: less binding

B5: M9: human IL-3 mutant, amino acid 116 (Lys) replaced by Val (protein, UniProt P08700 20-152, looked up, variant K116V)
Interleukin-3: B1 Interleukin-3 with G33P, K116V
number of day 14 colonies [6]: increase in the number of day 14 colonies | Relative biological activity, PROLIFERATION COLONIES [6]: 420 | stimulation of CML cell proliferation [3]: more potent than the wild type IL-3 | Relative biological activity, PROLIFERATION CML [3]: 328 | histamine release from basophils [8]: increased histamine release | stimulation of monocyte adherence [4]: more potent than the wild type IL-3 | Relative biological activity, MONOCYTE [4]: 312
